Source: patent publication US7608265B2, “Treatment for bacterial infections” (priority 2004, dated 2009)
In brackets after ≈: the same amount, converted by molar mass. Read-outs that look alike come from different tables or passages of the source.

Experiments:
[1] = tested on: Vancomycin resistant Enterococcus faecium; test: Combination drug MIC (checkerboard), Enterococcus faecium; type: cell-based
[2] = tested on: Clostridium difficile NCR 1104; test: microbe, parasite or virus in culture; type: cell-based
C. difficile 14000287 = test: Combination drug MIC (checkerboard), C. difficile 14000287, Brucella broth; type: cell-based, Clostridium difficile
C. difficile NCTC 11204 = test: Combination drug MIC (checkerboard), C. difficile NCTC 11204, RCM; type: cell-based, Clostridium difficile
Clostridium difficile = test: Growth of Clostridium difficile in the presence of SCFA and H1L1 (OD600); type: cell-based; conditions: for Mean Optical Density at 24 Hours: OD600
Experimental: The three SCFAs used were acetate, propionate and butyrate.
Each was prepared to a concentration of 1 M as follows: • Sodium acetate FW 82.03-82.03 g in 1 litre dH2O • Sodium butyrate FW 110.09-110.09 g in 1 litre dH2O • Sodium propionate FW 96.06-96.06 g in 1 litre dH2O
The three solutions were combined in a ratio of 70:20:10 respectively. Therefore, in the final solution the concentrations were sodium acetate 0.7 M, sodium butyrate 0.2 M and sodium propionate 0.1 M. The final concentration of total SCFA was 1 M.
From this stock solution concentrations of 5, 10, 20, 30, 40 and 50 mM total SCFA were prepared using reinforced clostridial medium (RCM, DIFCO).
Reinforced clostridial medium (RCM) was prepared according to the manufacturers instructions: 38 g in 1 litre dH2O
Cultures were only removed from anaerobic conditions immediately prior to use.
An overnight suspension of C. difficile was made by inoculation 10 ml of RCM medium with colonies from a 48 hour old Columbia Blood Agar plate of the organism. The suspension was incubated for 24 hours at 37° C. under anaerobic conditions.
In a flat-bottomed 96 well microtitre plate control solutions (200 μl) were placed in the wells as outlined below in Table 4. Each control used 3 wells.
In a flat-bottomed 96 well microtitre plate (rows labelled A-H, columns labelled 1-12) test solutions (100 μl) were placed in the wells as detailed below. The two test solutions, SCFA plus H1L1, give a combined volume of 200 μl. Each test used 2 wells. […] Wells in columns 1 and 2 contained 16 μg/ml H1L1; in columns 3 and 4, 8 μg/ml H1L1; in columns 5 and 6, 4 μg/ml H1L1; in columns 7 and 8, 2 μg/ml H1L1; in columns 9 and 10, 1 μg/ml H1L1; in columns 11 and 12, 0.5 μg/ml H1L1. Row G was empty. 200 μl RCM was placed into all the wells in row H as a growth control for the plate.
The overnight suspension, culture at late log phase, was used to inoculate the microtitre plates. 20 μl (approx 10% inoculum) was added to all the wells, except for the media/negative control on the control plate.
Plates were incubated at 37° C. under anaerobic conditions for 24 hours.
Optical density readings (OD600 nm) were made at time points zero and 24 hours. Average OD600 nm readings were determined.

[3] = tested on: C. difficile acetyl-CoA acetyl transferase (thiolase); test: Immunoblot of H1L1 against cloned acetyl-CoA acetyl transferase; type: binding, Clostridium difficile; conditions: H1L1 at 1:10 (approximately 400 μg/ml), purified His-tag thiolase, band just under 50 kD marker
C. difficile acetyl-CoA acetyl transferase (thiolase), sequence (as listed by the source): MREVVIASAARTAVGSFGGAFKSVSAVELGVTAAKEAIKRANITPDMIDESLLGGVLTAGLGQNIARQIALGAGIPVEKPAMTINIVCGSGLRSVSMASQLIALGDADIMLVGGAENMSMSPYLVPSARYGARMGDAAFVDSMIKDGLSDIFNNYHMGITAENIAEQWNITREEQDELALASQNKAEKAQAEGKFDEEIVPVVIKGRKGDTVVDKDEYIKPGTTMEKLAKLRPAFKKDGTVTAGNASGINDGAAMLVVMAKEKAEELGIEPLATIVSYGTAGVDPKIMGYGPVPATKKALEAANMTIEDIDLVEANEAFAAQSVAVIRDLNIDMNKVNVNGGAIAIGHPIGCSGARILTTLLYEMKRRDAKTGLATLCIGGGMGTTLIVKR
Experimental: Cloned and purified acetyl-CoA acetyl transferase was mixed 1:1 with loading buffer and DTT and put on heating block at 90° C. for 5 minutes. 5-15 μl was separated for 35 minutes on a 10% BisTris gel (Invitrogen) using NuPAGE-MES SDS running buffer (Invitrogen).
The proteins were transblotted onto Invitrolon PVDF membrane (Invitrogen Ltd, Carlsbad, Calif., USA) and blocked in 5% skimmed milk in 0.1% Tween20 in 10 mM PBS for 1 hour. The membrane was incubated with H1L1 at 1:10 (concentration approximately 400 μg/ml) in 0.1% Tween20 in 10 mM PBS for 1 hour. Washed three times for 5 minutes with 0.1% Tween20 in 10 mM PBS and then incubated for one hour with S-protein HRP conjugate (Novagen) at 1:1000.

[4] = gentamicin + H1L1 combination, Brucella broth
[5] = 8 μg/ml of H1L1 and SCFA from 10-50 mM

With CN[C@H](CC(C)C)C(=O)N[C@H]1C(=O)N[C@@H](CC(N)=O)C(=O)N[C@H]2C(=O)N[C@H]3C(=O)N[C@H](C(=O)N[C@H](C(=O)O)c4cc(O)cc(O)c4-c4cc3ccc4O)[C@H](O)c3ccc(c(Cl)c3)Oc3cc2cc(c3O[C@@H]2O[C@H](CO)[C@@H](O)[C@H](O)[C@H]2O[C@H]2C[C@](C)(N)[C@H](O)[C@H](C)O2)Oc2ccc(cc2Cl)[C@H]1O [Vancomycin, vancomycin] the FICI [1] was 0.37, the “MIC (μg/ml) of each agent Combination” value [1] was 16 µg/mL and the Outcome [1] was “Synergy”. For the same molecule, the MIC ([1]; Enterococcus faecium, 24 h, read-out: MIC (μg/ml) of each agent Alone) was 128 µg/mL, the FICI [2] was 0.125 and the “MIC (μg/ml) of each agent Combination” value [2] was 0.125 µg/mL. For the same molecule, the Outcome [2] was “Synergy” and the MIC ([2]; Clostridioides difficile, NCR1104, 48 h, read-out: MIC (μg/ml) of each agent Alone) was 1 µg/mL (≈ 0.69 µM).

In the case of gentamicin [reference compound], the “MIC (μg/ml) of each agent Alone” value (C. difficile 14000287; Brucella broth) is reported as 8 µg/mL, the “FIC (μg/ml)” value (C. difficile 14000287; [4]) is reported as 0.25 and the FICI (C. difficile 14000287; [4]) is reported as 0.266. The “MIC (μg/ml) of each agent Combination” value (C. difficile 14000287; [4]) was 2 µg/mL, the Outcome (C. difficile 14000287; [4]) was “Synergy” and the “MIC (μg/ml) of each agent Alone” value (C. difficile NCTC 11204) was 16 µg/mL. The “FIC (μg/ml)” value (C. difficile NCTC 11204; gentamicin + H1L1 combination) was 0.25, the FICI (C. difficile NCTC 11204; gentamicin + H1L1 combination) was 0.375 and the “MIC (μg/ml) of each agent Combination” value (C. difficile NCTC 11204; gentamicin + H1L1 combination) was 4 µg/mL. The Outcome (C. difficile NCTC 11204; gentamicin + H1L1 combination) was “Synergy”.

B1: H1L1: synthetic antibody S Tag-CDH1-Linker-CDL1-His Tag, SEQ ID NO: 41, from dominant VH and VL of C. difficile patients; binds acetyl-CoA acetyltransferase (protein)
chain: EVQLVESGPGLVKPSETLSLTCTVSGGSVSSGSYSWSWIRQRPGQGLEWIGFIYYTGYTSYKSSLKSRVSLSVDTSNDQFSLSLSSVTAADTAVYYCAREIRAPDHHDFSGYLGRWGQGTLVTVSSGGSGGGGSGGGGSASKSSELTQDPAVSVALGQTVRITCQGDSLRSYYASWYQQKPGQAPVLVIYGKNNRPSGIPDRFSGSSSGNTASLTITGAQAEDEADYYCNSRDSTGNQLFGGGTKVTVLG
modifications: synthetic H1L1 antibody
In the case of B1, the “MIC (μg/ml) of each agent Alone” value ([1]; agent alone, 24 h) is reported as 512 µg/mL, the “FIC (μg/ml)” value ([1]; vancomycin + H1L1 combination) is reported as 0.25 and the “MIC (μg/ml) of each agent Combination” value ([1]; vancomycin + H1L1 combination) is reported as 128 µg/mL. For the same molecule, the Outcome ([1]; vancomycin + H1L1 combination) was “synergy (synergy was defined by a value of <=0.5)”, the “Outcome of combination” value (C. difficile 14000287; H1L1 and vancomycin versus C. difficile 14000287) was “synergy (synergy was defined by a value of <=0.5)” and the “MIC (μg/ml) of each agent Alone” value (C. difficile 14000287; Brucella broth) was 512 µg/mL. For the same molecule, the “FIC (μg/ml)” value (C. difficile 14000287; [4]) was 0.0156, the “MIC (μg/ml) of each agent Combination” value (C. difficile 14000287; [4]) was 8 µg/mL and the Outcome (C. difficile 14000287; [4]) was “synergy (synergy was defined by a value of <=0.5)”. For the same molecule, the “FIC (μg/ml)” value [2] was 0.0004, the “MIC (μg/ml) of each agent Combination” value [2] was 0.25 µg/mL and the Outcome [2] was “synergy (key: synergy was defined by a value of <=0.5; indifference was defined by a value of >0.5 to <4; antagonism was defined by a value of >=4.0)”. The “Interaction of H1L1 and SCFA” value (Clostridium difficile; [5]) was “Synergy”, the “optical density at 24 hours” value (Clostridium difficile; [5]) was 0.296-0.330 and the “Effect on growth” value (Clostridium difficile; 16 μg/ml of H1L1 alone) was “inhibition”. For the same molecule, the “Effect on growth” value (Clostridium difficile; 0.5, 1, 2, 4 and 8 μg/ml of H1L1 alone) was “No effect”, the “Interaction of H1L1 and SCFA” value (Clostridium difficile; 1, 2 and 4 μg/ml of H1L1 and 5 mM of SCFA (data not shown)) was “Indifference” and the “Mean Optical Density at 24 Hours” value (Clostridium difficile; H1L1 0.5 μg/ml alone) was 0.450. For the same molecule, the “Mean Optical Density at 24 Hours” value (Clostridium difficile; H1L1 1 μg/ml alone) was 0.440, the “Mean Optical Density at 24 Hours” value (Clostridium difficile; H1L1 2 μg/ml alone) was 0.440 and the “Mean Optical Density at 24 Hours” value (Clostridium difficile; H1L1 4 μg/ml alone) was 0.440. For the same molecule, the “Mean Optical Density at 24 Hours” value (Clostridium difficile; H1L1 8 μg/ml + SCFA 10 mM) was 0.310, the “Mean Optical Density at 24 Hours” value (Clostridium difficile; H1L1 8 μg/ml + SCFA 20 mM) was 0.296 and the “Mean Optical Density at 24 Hours” value (Clostridium difficile; H1L1 8 μg/ml + SCFA 30 mM) was 0.305. The “Mean Optical Density at 24 Hours” value (Clostridium difficile; H1L1 8 μg/ml + SCFA 40 mM) was 0.310, the “Mean Optical Density at 24 Hours” value (Clostridium difficile; H1L1 8 μg/ml + SCFA 50 mM) was 0.330 and the “Mean Optical Density at 24 Hours” value (Clostridium difficile; H1L1 8 μg/ml alone) was 0.420. For the same molecule, the “Mean Optical Density at 24 Hours” value (Clostridium difficile; H1L1 16 μg/ml + SCFA 10 mM) was 0.308, the “Mean Optical Density at 24 Hours” value (Clostridium difficile; H1L1 16 μg/ml + SCFA 20 mM) was 0.228 and the “Mean Optical Density at 24 Hours” value (Clostridium difficile; H1L1 16 μg/ml + SCFA 30 mM) was 0.308. The “Mean Optical Density at 24 Hours” value (Clostridium difficile; H1L1 16 μg/ml + SCFA 40 mM) was 0.303, the “Mean Optical Density at 24 Hours” value (Clostridium difficile; H1L1 16 μg/ml + SCFA 50 mM) was 0.281 and the “Mean Optical Density at 24 Hours” value (Clostridium difficile; H1L1 16 μg/ml alone) was 0.334. The “MIC (μg/ml) of each agent Alone” value (C. difficile NCTC 11204) was 512 µg/mL, the “FIC (μg/ml)” value (C. difficile NCTC 11204; gentamicin + H1L1 combination) was 0.125 and the “MIC (μg/ml) of each agent Combination” value (C. difficile NCTC 11204; gentamicin + H1L1 combination) was 64 µg/mL. The Outcome (C. difficile NCTC 11204; gentamicin + H1L1 combination) was “synergy (synergy was defined by a value of <=0.5)” and the “Immunoblot response to the thiolase band” value [3] was “strong response”.
